Reference: patent publication US6342394

Target: human steroid 21-hydroxylase (21-OH), 125I-labelled (human) (UniProt P08686)
Test: 125I-21-OH + protein A; competitor: autoantibodies in pooled patient sera; irrelevant control Fab

UniProt P08686, sequence (P08686 whole entry): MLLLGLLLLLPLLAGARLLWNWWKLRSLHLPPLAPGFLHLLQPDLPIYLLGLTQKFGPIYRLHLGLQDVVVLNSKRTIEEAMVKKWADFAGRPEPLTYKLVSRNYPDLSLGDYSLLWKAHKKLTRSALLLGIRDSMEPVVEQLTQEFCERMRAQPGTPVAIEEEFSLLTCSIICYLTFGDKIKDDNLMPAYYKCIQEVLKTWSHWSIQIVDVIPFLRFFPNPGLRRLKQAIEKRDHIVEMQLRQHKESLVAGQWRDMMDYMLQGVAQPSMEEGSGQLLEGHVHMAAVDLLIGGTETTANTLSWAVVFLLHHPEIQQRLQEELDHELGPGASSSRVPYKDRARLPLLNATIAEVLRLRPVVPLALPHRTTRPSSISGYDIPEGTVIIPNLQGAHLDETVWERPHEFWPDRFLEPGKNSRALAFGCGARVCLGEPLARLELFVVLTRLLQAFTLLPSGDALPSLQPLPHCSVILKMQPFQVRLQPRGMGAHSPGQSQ

control Fab from a TSH receptor (TSHR) mouse monoclonal antibody
% inhibition of 125I-21-hydroxylase binding: < 15%
